Measured values: PMC12416549 (2024)

T1: TNFR1 (Homo sapiens, UniProt P19438)
T1 chain: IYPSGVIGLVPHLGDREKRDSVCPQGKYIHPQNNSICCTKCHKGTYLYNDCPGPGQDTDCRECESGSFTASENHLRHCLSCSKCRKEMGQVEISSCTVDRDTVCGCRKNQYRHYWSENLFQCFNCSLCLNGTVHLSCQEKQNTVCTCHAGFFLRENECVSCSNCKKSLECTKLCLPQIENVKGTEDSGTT


Biological target: T1, TNFR1
Assay: yeast display SC50

Binder	apparent Kd (screen) [nM]
I45A (designed binder) MTLQELLREEALRRAEAEAFRYALELLAEKFPEQKEYLLDLAEEAESQIRSLSGVDVEDVRKFLDKEWAWVKELLAEHPAELAEVEAARAARLAELRAEVEAKVAA	13.8
V104P (designed binder) MTLQELLREEALRRAEAEAFRYALELLAEKFPEQKEYLLDLAEEIESQIRSLSGVDVEDVRKFLDKEWAWVKELLAEHPAELAEVEAARAARLAELRAEVEAKPAA	0.718
D65P (designed binder) MTLQELLREEALRRAEAEAFRYALELLAEKFPEQKEYLLDLAEEIESQIRSLSGVDVEDVRKFLPKEWAWVKELLAEHPAELAEVEAARAARLAELRAEVEAKVAA	26.9
S47Q (designed binder) MTLQELLREEALRRAEAEAFRYALELLAEKFPEQKEYLLDLAEEIEQQIRSLSGVDVEDVRKFLDKEWAWVKELLAEHPAELAEVEAARAARLAELRAEVEAKVAA	0.956
D40Y (designed binder) MTLQELLREEALRRAEAEAFRYALELLAEKFPEQKEYLLYLAEEIESQIRSLSGVDVEDVRKFLDKEWAWVKELLAEHPAELAEVEAARAARLAELRAEVEAKVAA	11.4
R89S (designed binder) MTLQELLREEALRRAEAEAFRYALELLAEKFPEQKEYLLDLAEEIESQIRSLSGVDVEDVRKFLDKEWAWVKELLAEHPAELAEVEAASAARLAELRAEVEAKVAA	0.79
R97E (designed binder) MTLQELLREEALRRAEAEAFRYALELLAEKFPEQKEYLLDLAEEIESQIRSLSGVDVEDVRKFLDKEWAWVKELLAEHPAELAEVEAARAARLAELEAEVEAKVAA	0.956
V85D (designed binder) MTLQELLREEALRRAEAEAFRYALELLAEKFPEQKEYLLDLAEEIESQIRSLSGVDVEDVRKFLDKEWAWVKELLAEHPAELAEDEAARAARLAELRAEVEAKVAA	6.43
E16W (designed binder) MTLQELLREEALRRAWAEAFRYALELLAEKFPEQKEYLLDLAEEIESQIRSLSGVDVEDVRKFLDKEWAWVKELLAEHPAELAEVEAARAARLAELRAEVEAKVAA	1.16
A90W (designed binder) MTLQELLREEALRRAEAEAFRYALELLAEKFPEQKEYLLDLAEEIESQIRSLSGVDVEDVRKFLDKEWAWVKELLAEHPAELAEVEAARWARLAELRAEVEAKVAA	0.539
L52S (designed binder) MTLQELLREEALRRAEAEAFRYALELLAEKFPEQKEYLLDLAEEIESQIRSSSGVDVEDVRKFLDKEWAWVKELLAEHPAELAEVEAARAARLAELRAEVEAKVAA	1.16
H78M (designed binder) MTLQELLREEALRRAEAEAFRYALELLAEKFPEQKEYLLDLAEEIESQIRSLSGVDVEDVRKFLDKEWAWVKELLAEMPAELAEVEAARAARLAELRAEVEAKVAA	0.49
L64K (designed binder) MTLQELLREEALRRAEAEAFRYALELLAEKFPEQKEYLLDLAEEIESQIRSLSGVDVEDVRKFKDKEWAWVKELLAEHPAELAEVEAARAARLAELRAEVEAKVAA	20.2
E101C (designed binder) MTLQELLREEALRRAEAEAFRYALELLAEKFPEQKEYLLDLAEEIESQIRSLSGVDVEDVRKFLDKEWAWVKELLAEHPAELAEVEAARAARLAELRAEVCAKVAA	0.49
D40K (designed binder) MTLQELLREEALRRAEAEAFRYALELLAEKFPEQKEYLLKLAEEIESQIRSLSGVDVEDVRKFLDKEWAWVKELLAEHPAELAEVEAARAARLAELRAEVEAKVAA	9.41
L96V (designed binder) MTLQELLREEALRRAEAEAFRYALELLAEKFPEQKEYLLDLAEEIESQIRSLSGVDVEDVRKFLDKEWAWVKELLAEHPAELAEVEAARAARLAEVRAEVEAKVAA	0.446
A17V (designed binder) MTLQELLREEALRRAEVEAFRYALELLAEKFPEQKEYLLDLAEEIESQIRSLSGVDVEDVRKFLDKEWAWVKELLAEHPAELAEVEAARAARLAELRAEVEAKVAA	0.446
E67P (designed binder) MTLQELLREEALRRAEAEAFRYALELLAEKFPEQKEYLLDLAEEIESQIRSLSGVDVEDVRKFLDKPWAWVKELLAEHPAELAEVEAARAARLAELRAEVEAKVAA	5.31
L12M (designed binder) MTLQELLREEAMRRAEAEAFRYALELLAEKFPEQKEYLLDLAEEIESQIRSLSGVDVEDVRKFLDKEWAWVKELLAEHPAELAEVEAARAARLAELRAEVEAKVAA	0.593
L3G (designed binder) MTGQELLREEALRRAEAEAFRYALELLAEKFPEQKEYLLDLAEEIESQIRSLSGVDVEDVRKFLDKEWAWVKELLAEHPAELAEVEAARAARLAELRAEVEAKVAA	20.2
A106P (designed binder) MTLQELLREEALRRAEAEAFRYALELLAEKFPEQKEYLLDLAEEIESQIRSLSGVDVEDVRKFLDKEWAWVKELLAEHPAELAEVEAARAARLAELRAEVEAKVAP	0.539
K30M (designed binder) MTLQELLREEALRRAEAEAFRYALELLAEMFPEQKEYLLDLAEEIESQIRSLSGVDVEDVRKFLDKEWAWVKELLAEHPAELAEVEAARAARLAELRAEVEAKVAA	0.539
L26N (designed binder) MTLQELLREEALRRAEAEAFRYALENLAEKFPEQKEYLLDLAEEIESQIRSLSGVDVEDVRKFLDKEWAWVKELLAEHPAELAEVEAARAARLAELRAEVEAKVAA	0.49
A28Q (designed binder) MTLQELLREEALRRAEAEAFRYALELLQEKFPEQKEYLLDLAEEIESQIRSLSGVDVEDVRKFLDKEWAWVKELLAEHPAELAEVEAARAARLAELRAEVEAKVAA	4.83
A87M (designed binder) MTLQELLREEALRRAEAEAFRYALELLAEKFPEQKEYLLDLAEEIESQIRSLSGVDVEDVRKFLDKEWAWVKELLAEHPAELAEVEMARAARLAELRAEVEAKVAA	0.49
A15N (designed binder) MTLQELLREEALRRNEAEAFRYALELLAEKFPEQKEYLLDLAEEIESQIRSLSGVDVEDVRKFLDKEWAWVKELLAEHPAELAEVEAARAARLAELRAEVEAKVAA	0.653
